In test [1] the target is T1, PDLoneECDHisCtag (human, UniProt Q9NZQ7 19-238).
T1 construct: Expressed in HEK-293F cells; theoretical molecular weight 29 kDa; also called recombinant human PD-L1 ECD; human PD-L1 (BLI); not shown: C-terminal His-tag; C-tag
Kind of test: BLI cross-block, second antibody on PDLoneECDHisCtag held by immobilised 547; bold = blocking. The protocol:
(§1) Antibody cross-block testing was performed using biolayer interferometry (BLI) on an Octet HTX instrument (ForteBio). Antibodies (20 μg/ml in 10 mM sodium acetate buffer pH 6.0 (ForteBio)) were immobilized on Amine-Reactive 2nd Generation (AR2G) biosensors (ForteBio) according to the instructions of the manufacturer. After a baseline (50 s) in Sample Diluent (ForteBio), biosensors containing immobilized antibodies were loaded for 500 s with PDLoneECDHisCtag (100 nM or 2.7 μg/ml), after which the association response of a second antibody (10 μg/ml) was followed for 500 s. Biosensors were regenerated by using 3 times 5 s alternating exposures to 10 mM glycine pH 2.5 and Sample Diluent. The experiment was repeated with a new set of second antibodies starting from the baseline step. Each biosensor was used 6 times. The experiment was performed at 30° C. using a shaker speed of 1000 rpm. Data was analyzed using Data Analysis Software v9.0.0.12 (ForteBio). The Y-axis was aligned to the association step and Savitzky-Golay filtering was applied. The average buffer response was subtracted from the association response of the second antibody in order to correct for the dissociation of PDLoneECDHisCtag from the immobilized antibody. The corrected association responses were plotted in a matrix format.

The target in test [2] is T1, PDLoneECDHisCtag. The experiment in a line: BLI cross-block, second antibody on PDLoneECDHisCtag held by immobilised 421-LC91S; bold = blocking. On the procedure: as §1
Test [3] concerns the target T1, PDLoneECDHisCtag. The experiment in a line: BLI cross-block, second antibody on PDLoneECDHisCtag held by immobilised 516; plain = non-blocking. The protocol:
as §1

Test [4] addresses T1, PDLoneECDHisCtag. The experiment in a line: BLI cross-block, second antibody on PDLoneECDHisCtag held by immobilised 632; plain = non-blocking. The protocol: as §1
Test [5] concerns the target T1, PDLoneECDHisCtag. The experiment in a line: BLI cross-block, second antibody on PDLoneECDHisCtag held by immobilised 321; bold = blocking. On the procedure:
as §1

The target of test [6] is T1, PDLoneECDHisCtag. The experiment in a line: BLI cross-block, second antibody on PDLoneECDHisCtag held by immobilised MEDI; bold = blocking. On the procedure:
as §1

In test [7] the target is T1, PDLoneECDHisCtag. Kind of test: BLI cross-block, second antibody on PDLoneECDHisCtag held by immobilised MPDL; bold = blocking. The protocol: as §1
Test [8] concerns the target T1, PDLoneECDHisCtag. The experiment in a line: BLI cross-block, second antibody on PDLoneECDHisCtag held by immobilised 338; bold = blocking. The protocol: as §1
Test [9] deals with T1, PDLoneECDHisCtag. The experiment in a line: BLI cross-block, second antibody on PDLoneECDHisCtag held by immobilised 511-LC33S; bold = blocking. On the procedure:
as §1

Test [10] has as its target T2, cynomolgus monkey PD-L1 (full length, on CHO cells) (cynomolgus monkey (Macaca fascicularis), UniProt G7PSE7 19-290).
T2 construct: whole, on cells; also called PDL1 Mf; cynomolgus PD-L1
Kind of test: flow cytometry on CHO cells transfected with cynomolgus PD-L1, PE anti-human IgG secondary, MFI (PE). On the procedure: (§2) Cells (3-5×10⁴ cells/well) were incubated in polystyrene 96-well round-bottom plates (Greiner bio-one, cat. no. 650101) with serial dilutions of antibodies (range 0.0001 to 10 μg/mL in 5-fold dilution steps) in 50 μL PBS/0.1% BSA/0.02% azide (staining buffer) at 4° C. for 30 min.
(§3) After washing twice in staining buffer, cells were incubated in 50 μL secondary antibody at 4° C. for 30 min. As a secondary antibody, R-Phycoerythrin (PE)-conjugated goat-anti-human IgG F(ab′)₂ (Cat. no. 109-116-098, Jackson ImmunoResearch Laboratories, Inc., West Grove, Pa.) diluted 1:500 in staining buffer, was used for all experiments. Next, cells were washed twice in staining buffer, re-suspended in 20 μL staining buffer and analyzed on an iQue screener (Intellicyt Corporation, USA). Binding curves were analyzed using non-linear regression (sigmoidal dose-response with variable slope) using GraphPad Prism V75.04 software (GraphPad Software, San Diego, Calif., USA).
Binding to CHO cells expressing cynomolgus PD-L1 was determined by flow cytometry using a method as described above.

Test [11] deals with T3, human PD-L1 (full length, on cells) (human, UniProt Q9NZQ7 19-290).
T3 construct: The entry holds the signal peptide; also called CD274; B7H1
The experiment in a line: flow cytometry on MDA-MB-231 cells, PE anti-human IgG secondary, MFI (PE). On the procedure:
as §2, §3
(In general: Flow cytometry measures light scatter and fluorescence of single cells or particles in a stream.)

For test [12], the target named is T4, human PD-L2 (full length, on CHO cells) (human, UniProt Q9BQ51 20-273).
T4 construct: whole, on cells; also called CHO-PD-L2 cells
T4 sequence (looked up): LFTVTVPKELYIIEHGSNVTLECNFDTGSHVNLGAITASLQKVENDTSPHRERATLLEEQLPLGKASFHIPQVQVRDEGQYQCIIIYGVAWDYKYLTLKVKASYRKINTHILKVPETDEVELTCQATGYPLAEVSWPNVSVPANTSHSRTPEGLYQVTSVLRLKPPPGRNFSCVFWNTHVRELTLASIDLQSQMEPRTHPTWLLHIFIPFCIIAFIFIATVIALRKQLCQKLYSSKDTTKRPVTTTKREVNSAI
Kind of test: flow cytometry on CHO cells expressing human PD-L2. On the procedure:
as §2, §3
A PE-conjugated PD-L2 specific antibody (Mylteni, clone MIH18; cat. no. 130-098-651) was used as positive control.

Test [13] has as its target T1, PDLoneECDHisCtag. The experiment in a line: BLI cross-block, second antibody on PDLoneECDHisCtag held by immobilised 516; bold = blocking. The protocol:
as §1

For test [14], the target named is T1, PDLoneECDHisCtag. Kind of test: BLI cross-block, second antibody on PDLoneECDHisCtag held by immobilised 511-LC33S; plain = non-blocking. On the procedure:
as §1

Test [15] concerns the target T1, PDLoneECDHisCtag. The experiment in a line: BLI cross-block, second antibody on PDLoneECDHisCtag held by immobilised 476-N101Q-LC33S; plain = non-blocking. On the procedure:
as §1

For test [16], the target named is T1, PDLoneECDHisCtag. Kind of test: BLI cross-block, second antibody on PDLoneECDHisCtag held by immobilised 421-LC91S; plain = non-blocking. The protocol:
as §1

Test [17] concerns the target T1, PDLoneECDHisCtag. Kind of test: BLI cross-block, second antibody on PDLoneECDHisCtag held by immobilised 632; bold = blocking. The protocol: as §1
Test [18] concerns the target T1, PDLoneECDHisCtag. Kind of test: BLI cross-block, second antibody on PDLoneECDHisCtag held by immobilised 476-N101Q-LC33S; bold = blocking. On the procedure: as §1
Test [19] deals with T1, PDLoneECDHisCtag. The experiment in a line: BLI cross-block, second antibody on PDLoneECDHisCtag held by immobilised 547; plain = non-blocking. The protocol:
as §1

T1 sequence (Q9NZQ7 19-238, form in doubt): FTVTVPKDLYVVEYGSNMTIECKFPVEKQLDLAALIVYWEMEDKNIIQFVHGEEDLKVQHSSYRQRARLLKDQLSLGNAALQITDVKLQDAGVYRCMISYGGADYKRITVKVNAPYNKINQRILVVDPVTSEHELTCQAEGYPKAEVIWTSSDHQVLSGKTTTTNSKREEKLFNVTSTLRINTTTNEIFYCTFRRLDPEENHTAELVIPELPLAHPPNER
T2 sequence (G7PSE7 entry or part of it): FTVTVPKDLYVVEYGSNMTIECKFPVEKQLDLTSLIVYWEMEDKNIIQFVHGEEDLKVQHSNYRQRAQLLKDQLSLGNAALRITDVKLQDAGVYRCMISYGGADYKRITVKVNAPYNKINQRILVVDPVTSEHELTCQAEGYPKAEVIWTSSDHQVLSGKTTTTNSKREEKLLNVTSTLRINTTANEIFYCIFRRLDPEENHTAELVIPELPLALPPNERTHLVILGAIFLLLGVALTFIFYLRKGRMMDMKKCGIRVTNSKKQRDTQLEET
T3 sequence (Q9NZQ7 19-290 limits assumed): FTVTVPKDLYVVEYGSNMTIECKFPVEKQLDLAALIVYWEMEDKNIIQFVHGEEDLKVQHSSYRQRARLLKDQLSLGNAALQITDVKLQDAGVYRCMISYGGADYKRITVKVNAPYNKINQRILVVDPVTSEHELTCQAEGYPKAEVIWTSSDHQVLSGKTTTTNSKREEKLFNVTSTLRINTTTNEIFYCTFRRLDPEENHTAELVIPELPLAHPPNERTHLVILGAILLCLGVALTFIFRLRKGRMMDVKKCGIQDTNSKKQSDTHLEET

B1: IgG1-321-FEAR (antibody, V domains shown)
VH: EVQLVESGGGLVQPGGSLRLSCAASGFTFSSYWMSWVRQAPGKGLEWVANIKQDGNEKYYVDSVKGRFTISRDNAKNSLYVQMNSLRAEDTAVYYCARDLYYGSGTYPPFDYWGQGTLVTVSS
VL: DIQMTQSPSTLSASVGDRVTITCRASQSISSWLAWYLQKPGKAPKLLIYKASSLESGVPSRFSGSGSGTEFTLTISSLQPDDFATYYCQQYHSSSYTFGQGTKLEIK
On to B1, for which the “association response of the second antibody” value (from here on “association response”) is 0 nm with PDLoneECDHisCtag [1]; -0.1 nm with PDLoneECDHisCtag [2]; 1.1 nm with PDLoneECDHisCtag [3]; 0.6 nm with PDLoneECDHisCtag [4]; 0 nm with PDLoneECDHisCtag [5]; 0 nm with PDLoneECDHisCtag [6]. For the same molecule, the “association response” value in the test with PDLoneECDHisCtag [7], with PDLoneECDHisCtag [8] and with PDLoneECDHisCtag [9] was 0 nm throughout.

B2: bsIgG1-huCD3-H1L1-FEAL×511-LC33S-FEAR (bispecific antibody)
heavy 1: not shown
VL: not shown
heavy 2: QVQLVQSGSELKKPGASVMVSCKASGYTFTSYVMNWVRQAPGQGLEWMGWINSYTGNPTSAQGFTGRFVFSFDTSVNTAYLQISSLKAEDTAVYYCARGYCTSTSCYLDYWGQGTLVTVSSASTKGPSVFPLAPSSKSTSGGTAALGCLVKDYFPEPVTVSWNSGALTSGVHTFPAVLQSSGLYSLSSVVTVPSSSLGTQTYICNVNHKPSNTKVDKRVEPKSCDKTHTCPPCPAPEFEGGPSVFLFPPKPKDTLMISRTPEVTCVVVAVSHEDPEVKFNWYVDGVEVHNAKTKPREEQYNSTYRVVSVLTVLHQDWLNGKEYKCKVSNKALPAPIEKTISKAKGQPREPQVYTLPPSREEMTKNQVSLTCLVKGFYPSDIAVEWESNGQPENNYKTTPPVLDSDGSFFLYSRLTVDKSRWQQGNVFSCSVMHEALHNHYTQKSLSLSPGK
light: SYELTQPPSVSVSPGHTARITCSGDALPKKYASWFQQKSGQAPVLVIYEDSKRPSGIPERFSGSTSGTMATLTISGAQVEDETDYYCYSADTSGTHRVFGGGTKLTVLGQPKAAPSVTLFPPSSEELQANKATLVCLISDFYPGAVTVAWKADSSPVKAGVETTTPSKQSNNKYAASSYLSLTPEQWKSHRSYSCQVTHEGSTVEKTVAPTECS
Broadly, the EC50 (read off the curve) is the concentration that produces a half-maximal response. Regarding B2, the “EC50 (read off the curve)” value in test [10] is ~0.3 µg/mL. Besides, the binding result in [11] is listed as “binds”; in test [12], “no binding”.

B3: IgG1-421-LC91S-FEAR (antibody, V domains shown)
VH: EVQLVESGGGLVQPGRSLRLSCAASGFTFDDYAMHWVRQGPGKGLEWVSGIRWNSGSMHYADSVKGRFTISRDNAKSSLYLQMNSLRAEDTALYYCARAPWYSGAWHPDYWGQGTLVTVSS
VL: QSALTQPRSVSGSPGQSVTISCTGTSSDVGTYNYVSWYQQHPGKAPKLMIYDVIKRPSGVPDRFSGSKSGNTASLTLSGLQAEDEADYYCSSYAGTYTLLFGGGTKLTVL
For the molecule B3, the “association response” value is 0 nm with PDLoneECDHisCtag [1]; 0 nm with PDLoneECDHisCtag [2]; -0.1 nm with PDLoneECDHisCtag [13]; 0.6 nm with PDLoneECDHisCtag [14]; 0.6 nm in the test with PDLoneECDHisCtag [4]; 0 nm with PDLoneECDHisCtag [5]. For the same molecule, the “association response” value with PDLoneECDHisCtag [6] was determined as 0 nm; in the test with PDLoneECDHisCtag [7] it was 0 nm; in the test with PDLoneECDHisCtag [8], 0 nm; in the test with PDLoneECDHisCtag [15] it was 0.8 nm.

B4: IgG1-476-N101Q-LC33S-FEAR (antibody, V domains shown)
VH: EVQMLESGGGLVQPGGSLRLSCAASGFTFRSYAMSWVRQAPGKGLEWVSGIGDSGGSTYHADSVKGRFTISRDNSKNTLYLQMNSLRAEDTAVYYCAKLGQSSGWYDHYYYYGMDVWGQGTTVTVSS
VL: SYELTQPPSVSVSPGQTASITCSGDKLGNKYVSWFQQKPGQSPVLVIYRDSERPSGIPERFSGSNSGNTATLTISGTQAVDEADFYCQAWDSSTVVFGGGTKLTVL
For the molecule B4, the “association response” value in the test with PDLoneECDHisCtag [16] came to 0.4 nm; in the test with PDLoneECDHisCtag [17], 0 nm; with PDLoneECDHisCtag [3] it was 1.2 nm; with PDLoneECDHisCtag [18], 0 nm; with PDLoneECDHisCtag [19], 0.8 nm; in the test with PDLoneECDHisCtag [9] it was 0 nm.

B5: IgG1-632-FEAR (antibody, V domains shown)
VH: QVQLVESGGGLVKPGGSLRLSCAASGFTFSDYYMSWIRQAPGKGLEWVSYIGSSSNTIYYADSVKGRFTISRDNAKNSLYLQMNSLRAEDTAVYSCARDRVKYGSPGSLFDYWGQGTLVTVSS
VL: SYELTQPPSVSVSPGQTARITCSGDALPKKYAFWYQQKSGQAPVLVIYEDSKRPSGIPERFSGSSSGTMATLTISGAQVEDEADYYCYSTASSGDHRVFGGGTKLTVL
With B5, the “association response” value in the test with PDLoneECDHisCtag [16] was determined as 0.2 nm; with PDLoneECDHisCtag [17], 0 nm; in the test with PDLoneECDHisCtag [3] it was 1.1 nm; in the test with PDLoneECDHisCtag [18] it was 0 nm; with PDLoneECDHisCtag [19] it was 0.7 nm; with PDLoneECDHisCtag [9] it was 0 nm.

The values above are taken from patent publication US20200239579A1 (Genmab, published 2020).
